Measured values as given in patent publication US7172865B2, “Rapid and sensitive assay for the detection and quantification of coregulators of nucleic acid binding factors” (Saint Louis University, priority 2001, dated 2007).

How the values were obtained:
[1] = test system: CAP5/CAP3 and CAP4/CAP1 nucleic acid duplexes; test: CAP assay with 7-diethylaminocoumarin-3-carboxylic acid donor and dabcyl acceptor; format: binding, E. coli; conditions: 100 nM CAP, 50 nM duplexes, 200 μM cAMP
From the text: (§1) Amino-Modifier C2 dT (Glen Research, Sterling, Va.) was incorporated into positions that are equivalent to the positions at which fluorescein-dT and dabcyl-dT has been used previously in CAP2 and CAP4 oligonucleotides, respectively. Amino-Modifier C2 dT contains a reactive aliphatic amino group that can be used to covalently attach any amino-reactive fluorescence probe. CAP5 (SEQ ID NO:7) and CAP6 (SEQ ID NO:8) oligonucleotides were modified with 7-diethylaminocoumarin-3-carboxylic acid, succinimidyl ester. This fluorochrome is excited at 433 nm and the maximum emission occurs at 475 nm providing the possibility of testing the assay with different emission colors. To modify the fluorochrome, ˜20 nmoles of the oligonucleotides were dissolved in 50 μl of 50 mM NaHCO3 (pH 8.3) and 50 nmoles of dry 7-diethylaminocoumarin-3-carboxylic acid, succinimidyl ester (Molecular Probes, Eugene, Oreg.) were added. The reaction mixture was incubated overnight at room temperature. […]
In the first experiment (FIG. 8), the pair of CAP5/CAP3 and CAP4/CAP1 nucleic acid duplexes were tested in the CAP assay. In this format, the 7-diethylaminocoumarin-3-carboxylic acid label present in the CAP5/CAP3 duplex functions as the fluorescence donor and the dabcyl label present in the CAP4/CAP1 duplex functions as a fluorescence acceptor.

[2] = test system: CAP6/CAP1 and CAP2/CAP3 nucleic acid duplexes; test: CAP assay with coumarin donor and fluorescein acceptor; format: binding, E. coli; conditions: 0 to 150 nM CAP, excitation 433 nm
From the text: as §1, with “colors.” for “colors. To modify the fluorochrome, ˜20 nmoles of the oligonucleotides were dissolved in 50 μl of 50 mM NaHCO3 (pH 8.3) and 50 nmoles of dry 7-diethylaminocoumarin-3-carboxylic acid, succinimidyl ester (Molecular Probes, Eugene, Oreg.) were added. The reaction mixture was incubated overnight at room temperature.”
In a second experiment (FIG. 9), the pair of CAP6/CAP1 and CAP2/CAP3 nucleic acid duplexes were tested for the performance in CAP assay. In this assay format, the 7-diethylaminocoumarin-3-carboxylic acid present in the CAP6/CAP1 duplex functioned as a fluorescence donor and the fluorescein present in the CAP2/CAP3 duplex functioned as an acceptor. […] Also, as shown in the inset of FIG. 9, the ratio between the fluorescence intensities at 520 nm and 475 nm may be used to determine the concentration of nucleic acid binding proteins. […]

[3] = test system: CAP nucleic acid binding element (CAP10/CAP11 and CAP12/CAP13); test: multiwell plate assay, immobilized CAP10/CAP11 and biotin-labeled CAP12/CAP13, streptavidin-peroxidase detection; conditions: for Absorbance (450 nm), + CAP: 200 μM cAMP
Protocol: To illustrate the extensive flexibility of the invention in terms of detection mode, an experiment following the general design depicted in FIG. 1E was performed. The following oligonucleotides, which when fully assembled contain a complete CAP nucleic acid binding element, were synthesized (X=amino-dT; B=biotin):
The CAP10 oligonucleotide was hybridized with the CAP11 oligonucleotide to generate the first nucleic acid component. The CAP 12 oligonucleotide was hybridized with the CAP13 oligonucleotide to generate the second nucleic acid component. For hybridization, appropriate oligonucleotides were (1) mixed at 10 μM concentration in 100 μl of buffer (500 mM Na2HPO4, pH 8.6, 1 mM EDTA, in the case of CAP10/CAP11 oligonucleotides; and 20 mM Tris, pH 8.0, 100 mM NaCl, 10 μM EDTA, in the case of CAP12/CAP13 oligonucleotides), (2) heated for 1 min at 95° C., and then (3) cooled to 25° C for 1 hr. The first nucleic acid component (CAP10/CAP11 half-site duplex) was covalently attached to the wells of a N-oxysuccinimide-activated 96 well plate (DNA-BIND, Corning, Acton, Mass.) by incubating 200 μl of first nucleic acid component (at 100 nM) per well in 500 mM Na2HPO4 (pH 8.6), 1 mM EDTA buffer for 1 hr followed by washing with 50 mM Tris (pH 8.0), 100 mM NaCl, 1 mM EDTA containing 0.1 mg/ml BSA. […] After incubation for 1 hr at room temperature, the wells were washed twice with the buffer followed with the addition of streptavidin-linked horseradish peroxidase (Pierce, Rockford, Ill.) at the dilution recommended by the manufacturer. After 30 min of incubation, the wells were washed twice with buffer followed with the addition of 100 μl of Turbo-TMB™ peroxidase substrate solution (Pierce, Rockford, Ill.). […] The absorbance at 450 nm of the sample and control wells were read using a standard microplate reader.

DNA = conditions: sequence specific binding; cited from earlier work

B1: CAP: bacterial transcription activator from E. coli which binds DNA in a sequence specific, cAMP-dependent manner (protein, UniProt P0ACJ8 2-210, looked up)
DNA-binding transcriptional …: VLGKPQTDPTLEWFLSHCHIHKYPSKSTLIHQGEKAETLYYIVKGSVAVLIKDEEGKEMILSYLNQGDFIGELGLFEEGQERSAWVRAKTACEVAEISYKKFRQLIQVNPDILMRLSAQMARRLQVTSEKVGNLAFLDVTGRIAQTLLNLAKQPDAMTHPDGMQIKITRQEIGQIVGCSRETVGRILKMLEDQNLISAHGKTIVVYGTR
- quenching of the fluorescence signal [1]: ~70%
- change of emission peaks [2]: pronounced quenching of the peak at 475 nm and a pronounced enhancement of the peak at 520 nm
- increase in absorbance signal compared to controls without CAP or cAMP ([3]; 10 nM CAP12/CAP13): approximately 3 fold
- Absorbance (450 nm), + CAP ([3]; 10 nM CAP12/CAP13, 250 nM CAP): 0.7308
- Absorbance (450 nm), + CAP ([3]; 20 nM CAP12/CAP13, 250 nM CAP): 0.8584
- Kd (DNA): ~0.1 nM
